Test results from patent US20250179205A1 (Hoffmann-La Roche, published 2025).

Experiments:
[1] = biological target: T1, Human CD40 extracellular domain with C-terminal His-AviTag (human); assay: SPR (Biacore), antibody captured by anti-human F(ab')2, CD40 ECD as analyte, 1:1 model
T1 construct: analyte in solution in the SPR assays; also called recombinant human CD40_ECD
Experimental: Around 12000 resonance units (RU) of the capturing system (10 μg/ml goat anti human F(ab)′₂; Order Code: 28958325; GE Healthcare Bio-Sciences AB, Sweden) were coupled on a CM5 chip (GE Healthcare BR-1005-30) at pH 5.0 by using an amine coupling kit supplied by the GE Healthcare. The sample and system buffer was PBS-T (10 mM phosphate buffered saline including 0.05% Tween20) pH 7.4. The flow cell was set to 25° C.—and the sample block set to 12° C.—and primed with running buffer twice. The antibody was captured by injecting a 50 nM solution for 30 sec at a flow of 5 μl/min. Association was measured by injection of human CD40 extra cellular domain or cynomolgus monkey CD40 extracellular domain in various concentrations in solution for 300 sec at a flow of 30 μl/min starting with 300 nM in 1:3 dilutions. The dissociation phase was monitored for up to 1200 sec and triggered by switching from the sample solution to running buffer. The surface was regenerated by 60 sec washing with a Glycine pH 2.1 solution at a flow rate of 30 μl/min. Bulk refractive index differences were corrected by subtracting the response obtained from a goat anti human F(ab′)₂ surface. Blank injections are also subtracted (=double referencing). For calculation of apparent KD and other kinetic parameters the Langmuir 1:1 model was used. The apparent Kd was calculated using the BIACORE® B4000 evaluation software (version 1.1).

human CD40 = biological target: T2, human CD40 (human, UniProt P25942 21-277); assay: flow cytometry, Raji cells, Alexa488 anti-huIgG
T2 construct: on Daudi cells, Raji cells, human B cells or HEK-Blue CD40L cells; also called hu CD40; CD40 receptor
T2 sequence (P25942 21-277 limits assumed): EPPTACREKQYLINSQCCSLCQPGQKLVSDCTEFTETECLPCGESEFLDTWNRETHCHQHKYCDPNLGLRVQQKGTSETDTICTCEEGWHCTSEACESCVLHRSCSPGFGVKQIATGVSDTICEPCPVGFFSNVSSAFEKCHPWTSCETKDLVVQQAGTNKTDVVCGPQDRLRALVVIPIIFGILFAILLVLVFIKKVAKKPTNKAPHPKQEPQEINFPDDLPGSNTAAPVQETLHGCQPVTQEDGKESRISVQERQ
Experimental: CD40 positive cells (Raji cells) were detached from the culture bottle using Trypsin and were counted using a Casy cell counter. After pelleting at 4° C., the cells were resuspended in FACS Buffer (2.5% FCS in PBS), adjusted to 2.0E+06 cells/mL, and dispensed to 96-well PP V-bottom-plates (25 μL/well=5.0E+04Zellen/well).
The CD40 specific antibodies were adjusted to 20 μg/mL in FACS buffer, resulting in a final concentration of 10 μg/mL. […] were added to 25 μl cell suspension and incubated for 1 h at 4° C. The cells were then washed twice in FACS buffer. After washing, the cells were resuspended in 50 μL FACS-buffer containing secondary antibody (<huIgG>-Alexa488, c=10 μg/mL) and incubated 1 h at 4° C. The cells were then washed twice in FACS buffer and resuspended in 70 μl/well FACS buffer for measurement using a FACS Canto (BD, Pharmingen).

T1 sequence (chain, as listed by the source limits assumed): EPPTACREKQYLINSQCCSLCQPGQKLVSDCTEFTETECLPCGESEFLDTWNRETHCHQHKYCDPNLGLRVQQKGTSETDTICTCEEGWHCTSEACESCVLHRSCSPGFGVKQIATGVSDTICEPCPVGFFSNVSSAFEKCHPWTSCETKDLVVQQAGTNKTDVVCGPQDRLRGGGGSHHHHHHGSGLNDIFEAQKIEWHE

B1: P1AE0816 CD40 IgG1_LALAPG antibody (control) (antibody, V domains shown)
VH: QVQLVQSGAEVKKPGASVKVSCKASGYSFTGYYIHWVRQAPGQSLEWMGRVIPNNGGTSYNQKFQGRVTISVDKSISTAYMELSSLRSEDTAVYYCAREGIYWWGHGTTVTVSS
VL: DVVVTQSPLSLPVTPGEPASISCRSSQSLVHSNGNTFLHWYLQKPGQSPQLLIYTVSNRFSGVPDRFSGSGSGTDFTLKISRVEAEDVGVYFCSQTTHVPWTFGGGTKLEIKR
notes: huIgG1 LALA PG; control for acceptor framework 1
Kd [1]: 8.7 nM | koff [1]: 0.0219 s⁻¹ | kon [1]: 2.53e+06 M⁻¹ s⁻¹ | EC50 (human CD40): 0.09 µg/mL
